# Assay results published in the RNAGym collection of RNA variant scans (doi:10.1073/pnas.2313332121).
# Variants at the floor of the assay were thinned out.
# B1: TPR 5TU (parent)
# chain: GGAUCUUCUCGAUCUAACAAAAAAGACAAAUCUGCCACAAAGCUUGAGAGCAUCUUCGGAUGCAGAGGCGGCAGCCUUCGGUGGCGCGAUAGCGCCAACGUUCUCAACUAUGACACGCAAAACGCGUGCUCCGUUGAAUGGAGUUUAUCAUG
# Variants of: B1
# Test: polymerase ribozyme fitness, log enrichment relative to wild type (log ratio); higher = more active; in vitro selection for triplet polymerase activity
# Procedure, shortened: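 A heterodimeric triplet polymerase ribozyme had each of its subunits mutagenized by PCR into a library, which was transcribed. One round of in vitro selection, done in triplicate, annealed each library with a biotinylated primer, its partner subunit and triplets, then incubated it frozen at −7 °C before gel excision of extended constructs, streptavidin-bead capture and RT-PCR. Fitness is the logarithm of genotype enrichment relative to wild-type enrichment, based on Illumina sequencing of inputs and outputs and inverse-variance-weighted replicate averages. A base-2 logarithm is used, and genotypes were kept only with ≥10 input reads and ≥1 read per output.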
row,Variant,polymerase ribozyme fitness (log ratio)
1,A20G G34A C118G A121C,-3.83
2,A20U A28U G42C G86U C93A C114U,-4.17
3,A20U A24G C32G U78A G83C,≤ -4.2
4,A20U A47C,-0.824
5,A20U C54A,-2.02
6,A20U C38G C57U G86A,-3.63
7,A20G G70C C75U C93A C95U U109C,≤ -4.2
8,A20U A24C C54U C63U G65U G84A C132G U148A,≤ -4.2
9,A20U A23G G50U G86A A110C C129G G140A,≤ -4.2
10,A20G G25A A49G C54U C76U G84A A122U U145G,≤ -4.2
11,A20U A52U A89C,-3.39
12,A20G G83A G88C C93G G100A C149U,≤ -4.2
13,A20G C76A U90G A97G G136C,≤ -4.2
14,A20U C54G C87U A115G C149U,≤ -4.2
15,A20U C32G C57U A73G U82G G92A,≤ -4.2
16,A20U A89U,-2.12
17,A20U A24G A29C C38G G80C A89G C105U C116G,≤ -4.2
18,A20G C57G A66C G94A C132U,≤ -4.2
19,A20U C27A U31G A40G G42U C96G A97G,≤ -4.2
20,A20G G58A G81C A142C,-1.55
21,A20U C27U G42U A52C U55A C95G C96U,≤ -4.2
22,A20G U33C C87U A89G U151G,≤ -4.2
23,A20U A47G G50U C85G,-3.77
24,A20U G50A U55G C85U A91U A137G,≤ -4.2

row,Variant,polymerase ribozyme fitness (log ratio)
1,A20U A40U C69A,-2.77
2,A20U A39U C51G A66C C93G U134A,≤ -4.2
3,A20U A30C A41G G74U C93U,≤ -4.2
4,A20U C57U,-2.23
5,A20U C57A,-1.36
6,A20U A40U U56A C96A G141C,-2.73
7,A20U A29G G48C A49C G117A U134G A137C U139A,≤ -4.2
8,A20U G62U G86A A107U G140A,≤ -4.2
9,A20U C32G A40G U55G,-4.19
10,A20U C57G C93U C123U,-2.57
11,A20U A23C C35G G84A C125U,≤ -4.2
12,A20G G68U C85U,≤ -4.2
13,A20G G59C G70A,-4.05
14,A20U G81C A147U,-0.168
15,A20U A122U U144G,-0.756
16,A20U G46C U56A C96U U135C A147G,≤ -4.2
17,A20U C57U G59U G62U C76U C96G A147G,≤ -4.2
18,A20U A52U C76A C93A,≤ -4.2
19,A20U A73G C79A C96G,≤ -4.2
20,A20U G46C G62U C75G G92A G140C,≤ -4.2
21,A20U G48A A60G U139A A142C A147G,≤ -4.2
22,A20U A30G U53A U55G C63G G141U,≤ -4.2
23,A20G C85U G94U C95G C125U,-3.59
24,A20U A49C G58C C87U,≤ -4.2

row,Variant,polymerase ribozyme fitness (log ratio)
1,A20U C38U C75A C87G A107U C132U,≤ -4.2
2,A20U A52G G58A C76G G81A G86A A122C,≤ -4.2
3,A20U C72U C85A U134C A150C,≤ -4.2
4,A20U G50A A89U A91G,≤ -4.2
5,A20U C96U A98G,-1.71
6,A20U C51U U55G C57G A120C,-3.76
7,A20U G25C G141A,-4.03
8,A20U G48A G68U G83C C103G A138G G143C,≤ -4.2
9,A20U A21C U102A C125G,-3.5
10,A20G G25A A40U A47G G48C C85A A142G,≤ -4.2
11,A20U A22U C43A G84C C108G C116G,≤ -4.2
12,A20U A23U A64C A91G A107G,≤ -4.2
13,A20G U31G G86A,-1.52
14,A20U C93A,-2.86
15,A20U C93G,≤ -4.2
16,A20G G81A C96U C114G U127G A142C,≤ -4.2
17,A20G G50C C54G C76A C87G U90G C95U,≤ -4.2
18,A20U G94A,-1.88
19,A20U A29U C43U A47G A49C C54G C95U C105A U145G A147G,≤ -4.2
20,A20U C35A G92U A110U,≤ -4.2
21,A20U A23G G88A C99G C149G,≤ -4.2
22,A20U G46A C76A C87G G94C C105G U144A,≤ -4.2
23,A20G C69U G84C G126C G136A,-1.72
24,A20U A23U A24U C51U A60G C85G,≤ -4.2

row,Variant,polymerase ribozyme fitness (log ratio)
1,A20U G48A G84A G152C,≤ -4.2
2,A20U G48A G50A C76G C96G U135G,≤ -4.2
3,A20U C57U A66U C95A U102C G141A U145G,≤ -4.2
4,A20G C57U G62C G136U,-3.44
5,A20U A28C G83U C87A C99G G140A,≤ -4.2
6,A20G C57A C69A C76U C96U,-1.94
7,A20U G59U G136C G141U,-3.78
8,A20G U102G A107U C116U A142U,≤ -4.2
9,A20G C87U U148A,-3.21
10,A20U C36A A41G U56A G65U A119G U127C,≤ -4.2
11,A20G G59A U77A C95U G117U C118G A122U,≤ -4.2
12,A20U G86A C87G A91U C118A,≤ -4.2
13,A20U A28U C96G,≤ -4.2
14,A20U U31C A49C C57U A60G G62C C96A,-4.15
15,A20G C96A,-1.84
16,A20G G80C U82A G100A U135C,≤ -4.2
17,A20G C54U A60U C85A,-3.42
18,A20G C93A C132G U134G U148G,≤ -4.2
19,A20U A49G A66C A73U C79U A106U A107C,≤ -4.2
20,A20U A52C C54U G88U A107U C116A,≤ -4.2
21,A20U A29U U55A A66C A106U A138U,≤ -4.2
22,A20U A30U A37U C51G C93U C95A C96G C116G,≤ -4.2
23,A20U U31C A41C C51A,-2.21
24,A20U A22G C51A G92A C93A C132U,≤ -4.2

row,Variant,polymerase ribozyme fitness (log ratio)
1,A20U A21U,-0.727
2,A20U A29G A91C C93A G128U,≤ -4.2
3,A20U A41U U55A A66U G84A C116A,≤ -4.2
4,A20U A52G C75U G88A C103G A119C,≤ -4.2
5,A20G G74A C87U U101C A107U,≤ -4.2
6,A20U C93U G126A,-1.5
7,A20U U31C U109G,-0.957
8,A20U G92A A121U G141C,-4.03
9,A20G C63A G74A C93A,≤ -4.2
10,A20U C125A,-2.05
11,A20U A52C,-2.87
12,A20G U55A C96A U104G,-2.4
13,A20U C27A C38G C54U C79U G112A,≤ -4.2
14,A20U A22C U82G G86U U101G C103G G143U,≤ -4.2
15,A20U A23C C79U G94C C95U U148A,≤ -4.2
16,A20G U56G G117C,-0.934
17,A20G G34C C38A C76U U90C C114U,≤ -4.2
18,A20U A40C U55A A73U,-3.94
19,A20G C95A A110G,-3.46
20,A20U G83U U90G C99A A107U U148A,≤ -4.2
21,A20U C57A G84U,-3.17
22,A20U A40U A49C G94A C99A G143A,≤ -4.2
23,A20U G83C G92A U127A G128U,≤ -4.2
24,A20U C85G C125A U145C,-3.41

row,Variant,polymerase ribozyme fitness (log ratio)
1,A20U A49G C85U A110G U148A,≤ -4.2
2,A20U U44G G46A G59C C96A A115C,≤ -4.2
3,A20U C54A A106C,-3.99
4,A20U A47U A49C U53A G80C A91U C96U A137G G140U,≤ -4.2
5,A20U A37C A52G G124U,-2.09
6,A20U C51U G83A C93G C96U C103A C105A,≤ -4.2
7,A20U C36G G70A,-4.1
8,A20U A47U A89U C96U G128U,≤ -4.2
9,A20U G50A G86U C96G,≤ -4.2
10,A20U C32U U56A A142U,-3.91
11,A20U A23C C35U C75U C103G G136A,≤ -4.2
12,A20U A28U A39U G83A G141A,-4.1
13,A20U U31G C43G A52U A73C C93U G94U C116G A121G C149U,≤ -4.2
14,A20U A39C,-3.84
15,A20U A47C C57U A64C G84C U148G,≤ -4.2
16,A20U U45A C118A,-3.82
17,A20U G42C C75A C105U C116U A120G G128A U146A,≤ -4.2
18,A20U C32G U56G G81A C93U A107G C131U C132G U135G A147G,≤ -4.2
19,A20U U45A C87G,-4.13
20,A20U A23C A47C U55G G86U A91G,≤ -4.2
21,A20U G83A C96G C118U U134A U144A,-3.46
22,A20U C54A C96G C108G U109G C118G C132A G143A U148A C149U,≤ -4.2
23,A20U A22U A121U G128A C129U A137C A138C,≤ -4.2
24,A20U A39C G48A G94A,≤ -4.2

row,Variant,polymerase ribozyme fitness (log ratio)
1,A20U G74A A137U,≤ -4.2
2,A20G G80A U82G C95U,-1.15
3,A20G G42C G84A C149A,≤ -4.2
4,A20G G59A,-0.551
5,A20U A41U G83U A89C C96G A150U,-2.06
6,A20U C35A A41C C95U U145A,≤ -4.2
7,A20U A41U G48A A49G C96G A106G A107G U135G,≤ -4.2
8,A20U C63A G84U C87U,-3.3
9,A20G G50C C54G C105G A106U G133C U151A,≤ -4.2
10,A20U G42A G62A G86U U134G G140U,≤ -4.2
11,A20U A40C,-0.959
12,A20U A97U,-2.04
13,A20U G42U U55G G62A,≤ -4.2
14,A20U G58A C96U U111G G124A U148A,≤ -4.2
15,A20G U53A U56A G58A C69U C93U,-3.35
16,A20U G71A C95A,≤ -4.2
17,A20U A30U C76U A89G A91C A122G U134G,≤ -4.2
18,A20U U33A G83A G86A G100A C149U,≤ -4.2
19,A20U C96G A150U,0.47
20,A20U A29C A30G C54A G67C G80U C93U G94A A97C C99U,≤ -4.2
21,A20U C35U G59C C75U C87U C99U A137U A138U,≤ -4.2
22,A20U U31G U55A A73G C85G C87G U135C U148C,≤ -4.2
23,A20G C125A,-0.707
